Experimental data taken from patent US11382907B2, “Methods and compositions for treating aging-associated impairments using CCR3-inhibitors” (Alkahest, Inc., priority 2017, dated 2022).

Columns and labels:
Assay type in all cases: in vivo
[1] = tested on: two-month-old C57Bl/6 mice treated with rmCCL11; assay: Y-maze test in young mice given recombinant mouse CCL11; details: 2-month-old mice; rmCCL11 i.p.; Compound 1 30 mg/kg p.o. b.i.d.
Procedure: A large Y-maze test assesses short-term memory of the familiarity of a specific context. Mice are brought to the experimental room for at least 30 min of acclimation to the experimental room conditions (dim lighting) prior to testing. For the initial training trial, the mouse is placed at the end of one arm of a large Y-maze designated “start arm” (arm length: 15 inches). The third arm of the maze is blocked off, allowing the mouse to explore two of the three arms freely (“start arm” and “familiar arm”) for 5 min. Each arm contains spatial cues. One hour later, the mouse is placed back into the maze in the “start arm” and allowed to explore all three arms with the third arm unblocked (“novel arm”). Movements in and out of each arm are tracked using automated tracking software (CleverSys). Testing is performed under dim lighting, and the apparatus is cleaned with 70% ethanol between trials.
Two-month-old C57Bl/6 mice were dosed with either vehicle control or Compound 1 by oral gavage twice daily for 18 days. During the last week of treatment, mice were subjected to behavior testing prior to perfusion on the last day of treatment. All mice received 5 consecutive days of BrdU injection at 150 mg/kg IP immediately prior to treatment start. […]

[2] = tested on: two-month-old C57Bl/6 mice treated with rmCCL11; assay: Barnes maze test in young mice given recombinant mouse CCL11; details: 2-month-old mice; rmCCL11 i.p.; Compound 1 30 mg/kg p.o. b.i.d.
Description: A modified Barnes maze was used to assess spatial working/episodic like learning and memory. The Barnes maze apparatus consists of a 122 cm diameter circular platform with 40 escape holes, each with a diameter of 5 cm placed along three rings of varying distances from the center of the platform. An escape box is attached to one of the holes and all holes are left uncovered. Bright lights and a fan are trained on the maze to provide adverse stimuli to encourage escape. Visual cues are placed on all four sides of the maze. Mice are given a series of 4 or 5 trials with inter-trial intervals of approximately 10 min, and the maximum duration of each trial is 90 or 120 sec. For each trial, mice are placed in the center of the maze. After 10 seconds, mice are allowed to explore, and the trial is ended if the mouse has found and entered an escape box before the end of the trial. Mice that cannot find the escape box are led to it and allowed to enter and given 30 sec to remain before being returned to its home cage. Training is done for 4 days. Data that is recorded and analyzed include velocity, escape latency, and distance moved.
Two-month-old C57Bl/6 mice were dosed with either vehicle control or Compound 1 by oral gavage twice daily for 18 days. During the last week of treatment, mice were subjected to behavior testing prior to perfusion on the last day of treatment. […]

[3] = tested on: two-month-old C57Bl/6 mice treated with rmCCL11; assay: Open Field test in young mice given recombinant mouse CCL11; details: 2-month-old mice; rmCCL11 i.p.; Compound 1 30 mg/kg p.o. b.i.d., 2 weeks
Procedure: Open Field is used to evaluate general locomotor activity and exploratory behavior in a novel environment. Mice are brought to the experimental room for at least 30 min for acclimation to the experimental room conditions (dim lighting) prior to testing. The testing arena consists of a 50 cm×50 cm square arena. Mice are placed in the center of an arena and tracked for 15 minutes. Time spent in the peripheral and centers zones is analyzed, along with rearing behavior. 70% ethanol is used to clean all surfaces between trials.
[…] During the last week of treatment, mice were subjected to behavior testing prior to perfusion on the last day of treatment. All mice received 5 consecutive days of BrdU injection at 150 mg/kg IP immediately prior to treatment start. […]

B1: rmCCL11: Recombinant mouse CCL11 (eotaxin-1), injected i.p. to impair behaviour in young mice (protein, UniProt P48298 24-97, looked up)
Eotaxin: HPGSIPTSCCFIMTSKKIPNTLLKSYKRITNNRCTLKAIVFKTRLGKEICADPKKKWVQDATKHLDQKLQTPKP
[1]
  memory in the Y-maze: impaired memory in the Y-maze
[2]
  memory in the Barnes maze: impaired memory in the Barnes maze
[3]
  anxiety in the Open Field: significantly worsened anxiety
